According to US11866736B2, “Protein prostheses for mitochondrial diseases or conditions” (The General Hospital Corporation, priority 2015, dated 2024):
Residue numbers refer to the chain shown, from its start. In names and notes the source's numbering stands.

B1: LbNOX: water-forming NADH oxidase endogenous to Lactobacillus brevis; tested with C-terminal FLAG tag (protein, listed as Lactobacillus brevis)
chain: KVTVVGCTHAGTFAIKQILAEHPDAEVTVYERNDVISFLSCGIALYLGGKVADPQGLFYSSPEELQKLGANVQMNHNVLAIDPDQKTVTVEDLTNHAQTTESYDKLVMTSGSWPIVPKIPGIDSDRVKLCKNWAHAQALIEDAKEAKRITVIGAGYIGAELAEAYSTTGHDVTLIDAMARVMPKYFDADFTDVIEQDYRDHGVQLALGETVESFTDSATGLTIKTDKNSYETDLAILCIGFRPNTDLLKGKVDMAPNGAIITDDYMRSSNPDIFAAGDSAAVHYNPTHQNAYIPLATNAVRQGILVGKNLVKPTVKYMGTQSSSGLALYDRTIVSTGLTLAAAKQQGLNAEQVIVEDNYRPEFMPSTEPVLMSLVFDPDTHRILGGALMSKYDVSQSANTLSVCIQNENTIDDLAMVDMLFQPNFDRPFNYLNILAQAAQAKVAQSVNA
modifications: C-terminal FLAG tag
B2: TPNOX: NADPH-specific quintuple mutant (G159A/D177A/A178R/M179S/P184R) of LbNOX (protein)
chain: B1 chain with G158A, D176A, A177R, M178S, P183R

Legend:
HeLa cells = assay: Oxygen consumption rate (OCR), XF24 extracellular flux analyzer; assay type: cell-based, human; conditions: for increase in oxygen consumption: resistance to antimycin: 1 μM antimycin (complex III inhibitor); for increase in oxygen consumption of HeLa cells: doxycycline-inducible expression
Protocol: Oxygen consumption rates (OCR) of HeLa cells expressing 5 bacterial NOXes (untargeted and targeted to mitochondria) and Luciferase under the control of doxycycline (DOX) inducible promoter (TRE3G) were measured with the XF24 Extracellular Flux Analyzer (Seahorse Bioscience, manufactured in 2008). Cells were seeded at 30-40×10^3 cells per well in XF24 24-well cell culture microplates in 200 μl of DMEM (DMEM (US Biological, […]), 3.7 g/L NaHCO3 and 10% dialyzed FBS (Life Technologies, 26400-044) and were incubated at 37° C. in 5% CO2 incubator. Media was replaced the next day with 1 ml per well and doxycycline (final concentration -300 ng/ml, prepared in water) or water were added to the corresponding wells to induce protein expression. Twenty four hour later, media was replaced with 950 μL of the assay medium (no pyruvate DMEM (US Biological, […]), 15.9 mg/L phenol red, 10% dialyzed FBS (Life Technologies, 26400-044) and 25 mM HEPES-KOH, pH 7.4) and plates were introduced into the […] Extracellular Flux Analyzer for experimental measurements. Each measurement was performed over 4 min after a 2-min mix and a 2-min wait period. Basal measurements were collected 8 times and 4 measurements were collected after injection of oligomycin (final concentration 1 μM), followed by 4 measurements after addition of antimycin A (final concentration 1 μM) from the XF24 ports in 50 μL of the assay medium. Cells were seeded at 30-40×10^3 per well in XF24 24-well cell culture microplates in 200 μl of normal growth media (DMEM (US Biological, […]), 3.7 g/L NaHCO3 and 10% dialyzed FBS (Life Technologies, 26400-044)) and were incubated at 37° C. in 5% CO2 incubator. For all experiments the next day media was renewed with 1 ml per well and doxycycline (final concentration -300 ng/ml) or water were added. Twenty four hours later, media was changed to no pyruvate media (no pyruvate DMEM (US Biological, […]), 15.9 mg/L phenol red, 3.7 g/L NaHCO3 and 10% dialyzed FBS (Life Technologies, 26400-044)). Two hours later, media was replaced with 950 μL of the assay medium (no pyruvate DMEM (US Biological, […]), 15.9 mg/L phenol red, 10% dialyzed FBS (Invitrogen, 26400-044) and 25 mM HEPES-KOH, pH 7.4) and OCR was measured. Each measurement was performed over 4 min after a 2-min mix and a 2-min wait period. Basal measurements were collected 8 times and 4 measurements were collected after injection of each drug: antimycin A (final concentration 1 μM) or piericidin (final concentration 1 μM). Three measurements before and after addition of the drug were averaged and normalized by the cell number.

HeLa Tet3G cells = assay: Cell proliferation assays: rescue of the proliferation defect induced by respiratory chain inhibitors (nuclei counting); assay type: cell-based, human; conditions: no pyruvate, doxycycline-inducible expression; for rescue of proliferation defect caused by piericidin: 1 μM piericidin
Protocol: Five hundred HeLa Tet3G NDI1, Luciferase, LbNOX or mitoLbNOX cells were seeded in 200 μl of DMEM (DMEM (US Biological, D9800), 3.7 g/L NaHCO3, 10% dialyzed FBS (Life Technologies, 26400-044)) per well in a black 96-well plate with clear bottom (Corning, 3904). Twenty four hours after seeding, media was exchanged to DMEM without pyruvate (DMEM (US Biological, D9802), 15.9 mg/L phenol red, 3.7 g/L NaHCO3, 10% dialyzed FBS (Life Technologies, 26400-044))±10 μg/ml chloramphenicol±30 ng/ml ethidium bromide±1 mM pyruvate±300 ng/ml doxycycline. After 0, 2, 3, 4, 5 and 6 days, media was aspirated and cells were fixed by adding 100 μl of 4% paraformaldehyde in PBS and incubating at room temperature for at least 30 min. Paraformaldehyde solution was aspirated and cells were stained with 200 μl of 1 μg/ml Hoechst 33345 in PBS. Plates were covered with sealing aluminum foil and stored at 4° C. before counting cells in each well with Molecular Dynamics IMAGEXPRESS® Ultra (see “Nuclei counting using Molecular Devices IMAGEXPRESS® Ultra,” below).
One thousand HeLa Tet3G NDI1, Luciferase, LbNOX or mitoLbNOX cells were seeded in 200 μl of DMEM (DMEM (US Biological, D9800), 3.7 g/L NaHCO3, 10% dialyzed FBS (Life Technologies, 26400-044)) per well in a black 96-well plate with clear bottom (Corning, 3904). Twenty four hours after seeding, 10 μl of 6 μg/ml doxycycline (300 ng/ml final concentration) or water was added to each well. Twenty four hours after addition of doxycycline, media was exchanged to DMEM without pyruvate (DMEM (US Biological, D9802), 15.9 mg/L phenol red, 3.7 g/L NaHCO3, 10% dialyzed FBS (Life Technologies, 26400-044)), ±1 μM piericidin, ±1 μM antimycin, ±1 mM pyruvate and ±300 ng/ml doxycycline. After 0, 1, 2, 3 and 4 days, media was aspirated and cells were fixed by adding 100 μl of 4% paraformaldehyde in PBS and incubating at room temperature for at least 30 min. Paraformaldehyde solution was aspirated and cells were stained with 200 μl of 1 μg/ml Hoechst 33345. Plates were covered with sealing aluminum foil and stored at 4° C. before counting cells in each well with Molecular Dynamics IMAGEXPRESS® Ultra (see “Nuclei counting using Molecular Devices IMAGEXPRESS® Ultra,” below).
Two thousand HeLa Tet3G Luciferase cells were seeded in 200 μl of DMEM (DMEM (US Biological, D9800), 3.7 g/L NaHCO3, 10% dialyzed FBS (Life Technologies, 26400-044)) per well in a black 96-well plate with clear bottom (Corning, 3904). Twenty four hours after seeding, media was exchanged to DMEM without pyruvate (DMEM (US Biological, D9802), 15.9 mg/L phenol red, 3.7 g/L NaHCO3, 10% dialyzed FBS (Life Technologies, 26400-044))±1 μM piericidin, ±indicated concentrations of pyruvate, lactate, malate, oxaloacetate, nicotinamide mononucleotide ([…]) or PJ34. After 3 days, media was aspirated and cells were fixed by adding 100 μl of 4% paraformaldehyde in PBS and incubating at room temperature for at least 30 min. Paraformaldehyde solution was aspirated and cells were stained with 200 μl of 1 μg/ml Hoechst 33345. Plates were covered with sealing aluminum foil and stored at 4° C. before counting cells in each well with Molecular Dynamics IMAGEXPRESS® Ultra (see “Nuclei counting using Molecular Devices IMAGEXPRESS® Ultra,” below).
Images of 96-well plates with fixed cells stained with Hoechst 33345 were collected using Molecular Devices IMAGEXPRESS® Micro XLS. Four images were taken to cover the whole well. Images were analyzed and nuclei number per well was counted using CellProfiler 2.0 image analysis software (Carpenter, et al., Genome Biol., 7:R100, 2006; and Kamentsky, et al., Bioinformatics, 27:1179, 2011). […]

| Molecule | increase in oxygen consumption: resistance to antimycin (HeLa cells) | increase in oxygen consumption: resistance to piericidin (HeLa cells; 1 μM piericidin (complex I inhibitor)) | increase in oxygen consumption of HeLa cells (HeLa cells) [fold] | rescue of proliferation defect caused by ethidium bromide (HeLa Tet3G cells; 30 ng/ml ethidium bromide) | rescue of proliferation defect caused by antimycin (HeLa Tet3G cells; 1 μM antimycin) | rescue of proliferation defect caused by piericidin (HeLa Tet3G cells) | rescue of proliferation defect caused by chloramphenicol (HeLa Tet3G cells; 10 μg/ml chloramphenicol) |
| --- | --- | --- | --- | --- | --- | --- | --- |
| B1 | resistant | resistant | 1.6 | rescued completely | rescued completely | rescued completely | rescued completely |
| B2 | resistant |  | 1.7 |  |  | not |  |
